These are literature values, as cited in publication PMC8707981.

Where two headings read alike, the source gives them in different places.

For series [1], the target named is Spike protein RBD (SARS-CoV-2) (UniProt P0DTC2).
For series [2] the target is unchanged. The source holds these as a separate data set.

The Kd is the constant that tells how readily two partners part at equilibrium. Consider Casirivimab, for which the Kd in series [1] is 0.0458 nM.

Regarding Imdevimab, the Kd in series [2] is 0.0467 nM.
